16 sequences from the nanobody polyreactivity screen of Harvey et al. (2022) can be followed below.

This series is described as follows: yeast display, Sf9 membrane polyspecificity reagent, FACS + sequencing; frameworks hold sequencing errors. In a few lines:
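Using colony PCR, genes from sorted yeast display clones were amplified, then sequenced on MiSeq at 2 × 250 and filtered by CDR length. The clones had been stained with 10% biotinylated, detergent-solubilized Sf9 membrane reagent for 1 hour at 4 °C and sorted by FACS into low and high (top ~1%) gates on anti-HA and streptavidin fluorescence. Polyreactivity labels come from the gate of origin.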
For the sequence “QVQLVESGGGLVQAGGSLRLSCAASGLTLSYYAMGWYRQAPGKERELVATISWRTGSTYYADSVKGRFTISRDNAKNTVYLQMNSLKPEDTAVYYCNARGFQYSYSHLIYYPYDYWGQGTQVTVSS”, the “polyreactivity (PSR sort gate)” value is on record as “high polyreactivity”. “QVQLVESGGGLVQAGGSLRLSCAASGLTLVTYAMGSYRQAPGKERELVAAINSGGSTNYADSVKGRFTISRDNAKNTVYLQMNSLKPEDTAVYYCNADRVSPATYDYWGQGTQVTVSS”: the “polyreactivity (PSR sort gate)” value is listed as “low polyreactivity”. Consider “QVQLVESGGGLVQAGGSLRLSCAASGLTLVTYAMGWYRQAPGNERELVAAINSGGSTNYADSVKGRFTISRDNAKNTVYLQMNSLKPEDTAVYYCNADRVSPATYDYWGQGTQVTVSS”, for which the “polyreactivity (PSR sort gate)” value is recorded as “low polyreactivity”.

With “QVQLVESGGGLVQAGGSLRLSCAASGLTLYGYTMGWYRQAPGKERELVATITTGGDSTYYADSVKGRFTISRDNAKNTVYLQMNSLKPEDTAVYYCAAYSYGWDYSYDYWGQGTQVTVSS”, the “polyreactivity (PSR sort gate)” value was “low polyreactivity”. On to “QVQLVESGGGLVQAGGSLRLSCAASGLTLYKNGMGWYRQAPGKERELVAVISRSGGRTYYADSVKGRFTISRDNAKNTVYLQMNSLKPEDTAVYYCAAAWYSSSRYQGIYRFDYWGQGTQVTVSS”, for which the “polyreactivity (PSR sort gate)” value is on record as “high polyreactivity”. Take “QVQLVESGGGLVQAGGSLRLSCAASGLTLYRNAMGWYRQAPGKERELVATINFSGGSKYYADSVKGRFTISRDNAKNTVYLQMNSLKPEDTAVYFCNARGYWHYSPTKFDYWGQGTQVTVSS”: the “polyreactivity (PSR sort gate)” value is given as “low polyreactivity”. As for “QVQLVESGGGLVQAGGSLRLSCAASGLTLYTYAMGWYRQAPGKERELVAAISKNGGRTYYADSVKGRFTISRDNANNTVYLQMNSLKPEDTAVYYCAARARVGSVTFDYWGQGTQVTVSS”, the “polyreactivity (PSR sort gate)” value was “high polyreactivity”. As to “QVQLVESGGGLVQAGGSLRLSCAASGLTLYYYAMGWYRQAPGKERELVAAINRGGSTYYSDSVKGRFTISRDNEKNTVYLLMNSLKPEDTAVYYCAVDYGVRDLTYYYCGQGTQVTVSS”, the “polyreactivity (PSR sort gate)” value is given as “low polyreactivity”. In the case of “QVQLVESGGGLVQAGGSLRLSCAASGLTSHSYAMGWYRQAPGKERELVAAINGDGGSTYYADSVKGRFTISRDNAKNTVYLQMNSLKPEDTAVYYCAAQGNRPRGEYDYWGQGTQVTVSS”, the “polyreactivity (PSR sort gate)” value was “high polyreactivity”. “QVQLVESGGGLVQAGGSLRLSCAASGLTSKFYAMGWYRQAPGKERELVAAISGSGGSTYYADSVKGRFTISRDKAKNTVYLQMNSLKPEDTAVYYCAARYFGLRYYYWGQGTQVTVSS”: the “polyreactivity (PSR sort gate)” value is given as “high polyreactivity”. Turning to “QVQLVESGGGLVQAGGSLRLSCAASGLTVKYYAMGWFRQAPGKERELAAIISFGGGSTYYADSVKGRFTISRDNAKNTVYLQMNSLKPEDTAVYYCNARLLFKYGYWGQGTQVTVSS”, the “polyreactivity (PSR sort gate)” value is “high polyreactivity”.

For the sequence “QVQLVESGGGLVQAGGSLRLSCAASGLTVLQNAMGWYRQAPGKEWELVAAINIGTNTYADSVKGRFTSARDNAKNTVYLQMNSLKPEDTAVYYCATVDTVLVRPVGYDYWGQGTQVTVSS”, the “polyreactivity (PSR sort gate)” value is recorded as “low polyreactivity”. For the sequence “QVQLVESGGGLVQAGGSLRLSCAASGLTYADYAMGWYRQAPGKDRQLVAAISRRGGSTYYADSVKGRFTISRDKAKNTVYLQMNSLKPEDTAVYYCAAYAYDVAFKRYKFDYWGQGTLVTVSS”, the “polyreactivity (PSR sort gate)” value is listed as “high polyreactivity”. “QVQLVESGGGLVQAGGSLRLSCAASGMGWYRQAPGKERELVAAITSGDSTNYADSVKGRFTISRDNAKNTVYLQMNSLKPEDTAVYYCAADPDYLYAYYYWGQGSQVTVSS”: the “polyreactivity (PSR sort gate)” value was “low polyreactivity”. Regarding “QVQLVESGGGLVQAGGSLRLSCAASGMGWYRQAPGKERELVAAITSGDSTNYADSVKGRFTISRDNAKNTVYLQMNSLKPEDTAVYYCAADPDYLYAYYYWGQGTQVTVSS”, the “polyreactivity (PSR sort gate)” value is listed as “low polyreactivity”.

Consider “QVQLVESGGGLVQAGGSLRLSCAASGMGWYRQAPGKERELVATITWSDGITYADSVKGRFTISRDNAKNTVYLQMNSLKPEDTAVYYCNADWDQTGTVFYSFGMREMDSWGQGTQVTVSS”, for which the “polyreactivity (PSR sort gate)” value is reported as “low polyreactivity”.
